According to PMC8641930, “PLK1 regulates the PrimPol damage tolerance pathway during the cell cycle” (Science Advances, 2021):

B1: PrimPol CTD (PrimPol 480-560) (domain or fragment, human, UniProt Q96LW4 480-560, looked up)
chain: TTDEADETRSNETQNPHKPSPSRLSTGASADAVWDNGIDDAYFLEATEDAELAEAAENSLLSYNSEVDEIPDELIIEVLQE
notes: also called C-terminal region of WT PrimPol; PrimPol C-terminal domain; source: E. coli BL21, purified (Ni-NTA, Q-Sepharose, Superdex 75 SEC)
B2: PrimPol CTD (PrimPol 480-560) S538A (domain or fragment, human, UniProt Q96LW4 480-560, looked up)
chain: TTDEADETRSNETQNPHKPSPSRLSTGASADAVWDNGIDDAYFLEATEDAELAEAAENALLSYNSEVDEIPDELIIEVLQE
notes: Primase-Polymerase (PrimPol), human, C-terminal domain, residues 480-560, phospho-null mutant S538A; also called C-terminal region of mutant PrimPol; CTD S538A; source: E. coli BL21, purified (Ni-NTA, Q-Sepharose, Superdex 75 SEC)
B3: PrimPol CTD (PrimPol 480-560) S538E (domain or fragment, human, UniProt Q96LW4 480-560, looked up)
chain: TTDEADETRSNETQNPHKPSPSRLSTGASADAVWDNGIDDAYFLEATEDAELAEAAENELLSYNSEVDEIPDELIIEVLQE
notes: Primase-Polymerase (PrimPol), human, C-terminal domain, residues 480-560, phosphomimetic mutant S538E; also called C-terminal region of mutant PrimPol; CTD S538E; source: E. coli BL21, purified (Ni-NTA, Q-Sepharose, Superdex 75 SEC)

Target: T1, RPA70N (RPA70 1-120) (UniProt P27694 1-120)
T1 construct: Replication Protein A 70 kDa subunit (RPA70), N-terminal domain, residues 1-120; source: E. coli BL21, purified (Ni-NTA, thrombin cleavage of the tag, Superdex 75 SEC)
T1 sequence (P27694 1-120): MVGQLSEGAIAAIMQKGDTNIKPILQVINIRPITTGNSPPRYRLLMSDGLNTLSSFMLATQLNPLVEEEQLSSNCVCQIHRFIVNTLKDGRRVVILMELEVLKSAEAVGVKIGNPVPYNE
Assay: SEC; analytical size exclusion chromatography, Superdex 75 10/300 GL; 50 mM tris-HCl, 100 mM NaCl, 2 mM TCEP; CTD variants mixed with RPA70N at 35 uM; interaction read as a shift of the peaks relative to the single proteins
Details: both partners purified

Binding result, binds:
B1
B2
B3
